Data published in PMC9364112, “A natural fusion of flavodiiron, rubredoxin, and rubredoxin oxidoreductase domains is a self-sufficient water-forming oxidase of Trichomonas vaginalis” (The Journal of Biological Chemistry, 2022).

Assays:
[1] = molecular target: class F flavodiiron protein 3 from Trichomonas vaginalis (TvFDPF3) (Trichomonas vaginalis); experiment: cryo-EM structure; single-particle cryo-EM of holoTvFDPF3 at 0.8 mg/ml in buffer E (50 mM Hepes-NaOH pH 7.5, 150 mM NaCl); map without symmetry 6.6 Å, C2-symmetric map 6.8 Å; homology models of the domains docked into the density
[2] = molecular target: T1, TvFDPF3 (holoTvFDPF3) (Trichomonas vaginalis, UniProt A2E972); experiment: LC-MS quantification of bound flavin; assay type: binding; conditions: co-purified cofactor, FDP domain
T1 construct: gene TVAG_121610; full length, 871 residues, C-terminal His6 (pET30a, E. coli BL21 Star DE3), ~100 kDa on SDS-PAGE; FDP-core head-to-tail dimer; holo preparation with full FAD/FMN
T1 sequence (A2E972 1-871): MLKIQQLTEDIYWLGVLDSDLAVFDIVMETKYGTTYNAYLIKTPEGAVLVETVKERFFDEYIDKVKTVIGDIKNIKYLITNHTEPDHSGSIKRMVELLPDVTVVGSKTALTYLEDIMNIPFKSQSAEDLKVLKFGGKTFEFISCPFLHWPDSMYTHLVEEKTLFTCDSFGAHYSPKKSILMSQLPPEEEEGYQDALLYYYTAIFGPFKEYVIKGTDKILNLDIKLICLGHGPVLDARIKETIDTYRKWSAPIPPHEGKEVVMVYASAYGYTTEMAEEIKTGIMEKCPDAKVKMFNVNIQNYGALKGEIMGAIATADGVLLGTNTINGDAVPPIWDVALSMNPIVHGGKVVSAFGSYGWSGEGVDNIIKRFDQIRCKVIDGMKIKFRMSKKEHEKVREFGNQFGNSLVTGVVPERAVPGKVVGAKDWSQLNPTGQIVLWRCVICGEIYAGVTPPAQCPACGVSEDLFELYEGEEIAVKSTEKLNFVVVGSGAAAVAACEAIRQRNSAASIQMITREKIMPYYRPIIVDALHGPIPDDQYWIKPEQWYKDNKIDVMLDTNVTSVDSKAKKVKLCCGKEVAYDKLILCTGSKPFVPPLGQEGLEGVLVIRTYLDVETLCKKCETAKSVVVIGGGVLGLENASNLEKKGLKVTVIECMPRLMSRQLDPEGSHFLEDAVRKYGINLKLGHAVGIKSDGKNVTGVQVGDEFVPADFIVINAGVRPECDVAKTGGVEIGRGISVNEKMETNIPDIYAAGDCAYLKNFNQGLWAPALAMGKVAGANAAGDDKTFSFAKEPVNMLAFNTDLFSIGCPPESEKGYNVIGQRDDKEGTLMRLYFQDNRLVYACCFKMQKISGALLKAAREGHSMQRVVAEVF
Excerpt: LC-MS quantification of bound flavin on TvFDPF3 (holoTvFDPF3)

[3] = molecular target: T1, TvFDPF3 (holoTvFDPF3); experiment: anaerobic UV-visible titration, charge-transfer band at […] nm; assay type: binding
[4] = substrate: NC(=O)C1=CN([C@@H]2O[C@H](COP(=O)(O)OP(=O)(O)OC[C@H]3O[C@@H](n4cnc5c(N)ncnc54)[C@H](O)[C@@H]3O)[C@@H](O)[C@H]2O)C=CC1; experiment: purified protein; assay type: biochemical, Trichomonas vaginalis; conditions: O2 of air-saturated buffer, 50 mM Hepes-NaOH pH 7.5, 150 mM NaCl, 37 °C
[5] = substrate: NC(=O)C1=CN([C@@H]2O[C@H](COP(=O)(O)OP(=O)(O)OC[C@H]3O[C@@H](n4cnc5c(N)ncnc54)[C@H](OP(=O)(O)O)[C@@H]3O)[C@@H](O)[C@H]2O)C=CC1; experiment: purified protein; assay type: biochemical, Trichomonas vaginalis; conditions: O2 of air-saturated buffer, 50 mM Hepes-NaOH pH 7.5, 150 mM NaCl, 37 °C
[6] = holoTvFDPF3 (full FAD and FMN), kcat per monomer
[7] = preparation with 0.32 FAD and 0.009 FMN per monomer
[8] = preparation with 0.32 FAD and 0.009 FMN per monomer, kcat per monomer
[9] = preparation with 0.32 FAD and 0.009 FMN per monomer, NAD(P)H tested 0.5-600 μM
[10] = preparation with 0.32 FAD and 0.009 FMN per monomer, kcat per monomer, NAD(P)H tested 0.5-600 μM
[11] = preparation with about 1% FMN, kcat per monomer
[12] = preparation with about 1% FMN, kcat per monomer, NAD(P)H tested 0.5-600 μM

Molecule: class F flavodiiron protein 3 from Trichomonas vaginalis (TvFDPF3) (enzyme)
- stoichiometry N [1]: 2

Molecule: Cc1cc2nc3c(=O)[nH]c(=O)nc-3n(C[C@H](O)[C@H](O)[C@H](O)COP(=O)(O)O)c2cc1C [FMN]
- FMN per protein monomer [2]: 0.92 ± 0.09 mol per mol monomer

Molecule: NC(=O)c1ccc[n+]([C@@H]2O[C@H](COP(=O)(O)OP(=O)(O)OC[C@H]3O[C@@H](n4cnc5c(N)ncnc54)[C@H](O)[C@@H]3O)[C@@H](O)[C@H]2O)c1 [NAD^+]
- Kd [3]: ~0.13 µM

B1: TvFDPF3 (holoTvFDPF3) (Trichomonas vaginalis G3) (protein)
chain: MLKIQQLTEDIYWLGVLDSDLAVFDIVMETKYGTTYNAYLIKTPEGAVLVETVKERFFDEYIDKVKTVIGDIKNIKYLITNHTEPDHSGSIKRMVELLPDVTVVGSKTALTYLEDIMNIPFKSQSAEDLKVLKFGGKTFEFISCPFLHWPDSMYTHLVEEKTLFTCDSFGAHYSPKKSILMSQLPPEEEEGYQDALLYYYTAIFGPFKEYVIKGTDKILNLDIKLICLGHGPVLDARIKETIDTYRKWSAPIPPHEGKEVVMVYASAYGYTTEMAEEIKTGIMEKCPDAKVKMFNVNIQNYGALKGEIMGAIATADGVLLGTNTINGDAVPPIWDVALSMNPIVHGGKVVSAFGSYGWSGEGVDNIIKRFDQIRCKVIDGMKIKFRMSKKEHEKVREFGNQFGNSLVTGVVPERAVPGKVVGAKDWSQLNPTGQIVLWRCVICGEIYAGVTPPAQCPACGVSEDLFELYEGEEIAVKSTEKLNFVVVGSGAAAVAACEAIRQRNSAASIQMITREKIMPYYRPIIVDALHGPIPDDQYWIKPEQWYKDNKIDVMLDTNVTSVDSKAKKVKLCCGKEVAYDKLILCTGSKPFVPPLGQEGLEGVLVIRTYLDVETLCKKCETAKSVVVIGGGVLGLENASNLEKKGLKVTVIECMPRLMSRQLDPEGSHFLEDAVRKYGINLKLGHAVGIKSDGKNVTGVQVGDEFVPADFIVINAGVRPECDVAKTGGVEIGRGISVNEKMETNIPDIYAAGDCAYLKNFNQGLWAPALAMGKVAGANAAGDDKTFSFAKEPVNMLAFNTDLFSIGCPPESEKGYNVIGQRDDKEGTLMRLYFQDNRLVYACCFKMQKISGALLKAAREGHSMQRVVAEVF
notes: full length, 871 residues, C-terminal His6 (pET30a, E. coli BL21 Star DE3), ~100 kDa on SDS-PAGE; FDP-core head-to-tail dimer; holo preparation with full FAD/FMN
- Km [4, 6]: 56 ± 2 µM
- Vmax [4, 6]: 291 µmol/min/mg
- kcat [4, 6]: 466 ± 42 s⁻¹
- kcat/Km [4, 6]: 8.3e+06 ± 800000 M⁻¹ s⁻¹
- Km [5, 6]: 427 ± 160 µM
- Vmax [5, 6]: 11 µmol/min/mg
- kcat [5, 6]: 18 ± 6 s⁻¹
- kcat/Km [5, 6]: 41000 ± 21000 M⁻¹ s⁻¹

B2: TvFDPF2 (Trichomonas vaginalis G3) (protein)
chain: MLKIQQLTEDIYWLGVLDSNLAVFDIIMETKYGTTYNAYLIKTPEGAVLVETVKETFFDEYIEKVKSVIGDIHKIKYLITNHTEPDHSGSIKKMIELIPDLTVVGSKTALTYLEDIVNIPFKGHSAEDLKVLKFGGKSFEFISCPFLHWPDSMYTWVPEEKTLFTCDSFGAHYSPKKSILMSQLPPEEEEGYQDALLYYYTAIFGPFKEYVIKGTDKILNLDIKLVGLGHGPVLDARIKETIDTYRKWSAPLPTHEGKEVVMVYASAYGYTTEMAEEIKAGILAKIPDAKIKMFNVNIQNYGGLKGEIMNAIATADGVLLGTNTINGDAVPPVWDVALSMNPIVHGGKIVTAFGSYGWSGEGVDNIIARFDQIRCKVIDGCKIKFRMSKKEHGKVNEFGQQFGEALITGKVPERAVPGKVVGAKDWSELNPTGAVVLWRCVICGEIYAGVTPPLQCPACGVGQDLFELYEAEQVTHKSTEPLNYVIVGSGAAAVASIEAIRARNAVAKITMISREKVMPYYRPIIVDALNAEIAPDKYFLKNEEWYKENKIEIKLDTSVTAIDTKAKKVKLCRGDELAYDKLILATGSRPFIPPIGHEGLSGVIVIRTSADVDQLKAACQTAKKAVVIGGGVLGLENASAIKEKGVAVTVVECMPRLMARQLDTEASAVLLEEVKKFGVDVRLGMTVSIKGDGKHVTGVQVGEEFIPADFVVVNAGVRAESEVAAAAGIKCGRGIIVNNKMETNVPDVYAAGDCAFLDNMNQGLWAPALAMGKVAGANACGDNKTFAFAIEPVSMIAMGTDLFACGNPPESAQGYNVVSQKDDKEGSAIKLYFKDNRLVYAAGFRIQKISGSLLKGVREGRSLERIMAEIF
notes: full length, 871 residues, C-terminal His6 (pET30a, E. coli BL21 Star DE3); aggregation-prone; poor FAD and FMN occupancy
- kcat [4, 7]: 9.6 ± 0.3 s⁻¹
- kcat/Km [4, 7]: 530000 ± 60000 M⁻¹ s⁻¹
- Km [4, 8]: 18 ± 2 µM
- Vmax [4, 8]: 6.1 µmol/min/mg
- kcat [5, 9]: 1.7 ± 0.3 s⁻¹
- kcat/Km [5, 9]: 1400 ± 300 M⁻¹ s⁻¹
- Km [5, 10]: 1171 ± 208 µM
- Vmax [5, 10]: 1.1 µmol/min/mg

B3: TvFDPF1 (Trichomonas vaginalis G3) (protein)
chain: MLKIQQLTEDIYWLGALDPTLAVFDIIMETKYGTTYNAYMIKTPAGAVLVETVKECFFEEYIEKVKSVIGDINNIKYLITNHTEPDHSGSIKKIIEIIPGLTVIGSKTALTYLEDIVNIPFRGHSAEDLKALKFGGKTFEFISCPFLHWPDSMYTWLPEEQALFTCDSFGAHYSPKKSILMSELPPEEEDGYQEALLYYYTAIFGPFKDFVIKGTDKILDLDIKIICLGHGPVLDARVQETIDTYRKWSEPALPHPGIEVVMVYASAYGYTTEMAEEIKNGILDKIPDASVKMYNVNIQNYGGMKADIMNSIATADGVLLGTNTINGDAVPPIWDVALSMNPIVHGGKIVTAFGSYGWSGEGVDNIINRFDKIRCKVVEPIKIKFRMSKKEHKQVREFGRRFADCLESGEVPDRAVPGRVVGAKDWSELNPTGAIVLWRCVICGEIYAGVTPPLVCPACGVGQDLFELYEAEEVTCSSFENLKFVVVGSGAAAVSAIDAIRARNTVASITMLTREKIMPYYRPIIVDALNSEISPENYYLKNEDWYTENNITVKLGTTVKSIDTARKSLTLSDGSTMQYDRLILATGSRPFVPPIGHEGLTGVYVIRTSNDVELLKETCKTAKKAVVIGGGVLGLENASAIKDRGLSVTVVECMPRLMARQLDPEASEILQGFVRDYGVDLRMGQCVVIKGDGKKVTGVQVGDEFISADFVVVNAGVRAESEVAAAAGIECSRGITVNNKMETSAQDVYAAGDCAYMENINQGLWAPALAMGKVAGANAAGDSKTFHFSIEPVNMIAMGTDLFAVGIPPDSPKGYNVISQRDEKEGTAIKLYFKDNRLVYAAGFKCQKQSGFLLKGVRNGHTLQHVLAELF
notes: full length, 871 residues, C-terminal His6 (pET30a, E. coli BL21 Star DE3); 272 kDa by gel filtration
- Km [4, 11]: 2.9 ± 0.8 µM
- Vmax [4, 11]: 4.9 µmol/min/mg
- kcat [4, 11]: 7.8 ± 1.9 s⁻¹
- kcat/Km [4, 11]: 2.6e+06 ± 900000 M⁻¹ s⁻¹
- Km [5, 12]: 1475 ± 486 µM
- Vmax [5, 12]: 4.9 µmol/min/mg
- kcat [5, 12]: 7.8 ± 3.3 s⁻¹
- kcat/Km [5, 12]: 5200 ± 2800 M⁻¹ s⁻¹
